Data from article PMC4623018, “Studies on the catalytic domains of multiple JmjC oxygenases using peptide substrates” (Epigenetics, 2014).
Ends that are not written are not given here. Me3 = trimethyl on the lysine side-chain amine

Target: T1, KDM4A catalytic domain (human, UniProt O75164 1-359)
T1 construct: The limits 1-359 are those of the KDM4A catalytic domain used in the activity assays; also called KDM4A (1–359); 4A(1–359); source: E. coli, purified as previously described
T1 sequence (looked up): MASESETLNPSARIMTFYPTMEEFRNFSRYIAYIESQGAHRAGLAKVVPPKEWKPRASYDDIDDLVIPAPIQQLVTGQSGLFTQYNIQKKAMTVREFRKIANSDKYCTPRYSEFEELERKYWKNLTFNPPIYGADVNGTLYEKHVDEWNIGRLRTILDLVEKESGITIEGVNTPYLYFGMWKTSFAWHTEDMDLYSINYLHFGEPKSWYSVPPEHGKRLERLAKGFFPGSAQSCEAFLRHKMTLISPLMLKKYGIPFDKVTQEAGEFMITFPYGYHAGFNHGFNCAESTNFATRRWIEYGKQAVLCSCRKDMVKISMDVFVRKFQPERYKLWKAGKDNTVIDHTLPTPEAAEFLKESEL
Test: crystal structure; KDM4A catalytic domain complexed with H3K27me3 peptides (25 residue and 5 residue)
Settings: both partners purified

B1: 5 residue H3K27me3 peptide (peptide, UniProt P68431 26-30, looked up)
peptide: ARK(Me3)SA
notes: histone H3 fragment, residues 25-29; also called H3(25–29)K27me3
B1: binds.
